Test results from the FLAb antibody collection (doi:10.7554/elife.23156).

B1: scFv; the commonest letter at each place (parent)
chain 1: EVKLDETGGGLVQPGRPMKLSCVASGFTFSDYWMNWVRQSPEKGLEWVAQIRNKPYNYETYYSDSVKGRFTISRDDSKSSVYLQMNNLRVEDMGIYYCTGSYYGMDYWGQGTSVTVS
chain 2: DVVMTQTPLSLPVSLGDQASISCRSSQSLVHSNGNTYLRWYLQKPGQSPKVLIYKVSNRFSGVPDRFSGSGSGTDFTLKISRVEAEDLGVYFCSQSTHVPWTFGGGTKLEIK

Experiments:
fluorescein = variants of: B1; assay: Kd (Tite-Seq); settings: with fluorescein; format: scFv 4-4-20, heavy + light
[1] = variants of: B1; assay: yeast surface expression (ratio to wild type); higher = more expressed; settings: format: scFv 4-4-20, heavy + light

| Variant | Kd (fluorescein) | yeast surface expression [1] |
| --- | --- | --- |
| chain 1 EVKLDETGGGLVQPGRPMKLSCVASGFTFSDYWMNWVRQSPEKGLEWVAQIRNKPYNYETYYSDSVKGRFTISRDDSKSSVYLQMNNLRVEDMGIYYCTGSKYGMDYWIQGTSVTVS chain 2 DVVMTQTPLSLPVSLGDQASISCRSSQSLVHSNGNTYLRWYLQKPGQSPKVLIYKVSNRFSGVPDRFSGSGSGTDFTLKISRVEAEDLGVYFCSQSTHVPWTFGGGTKLEIK [chain 1 Y102K G109I] | ≥ 10 µM | 0.226 |
| chain 1 EVKLDETGGGLVQPGRPMKLSCVASGFTFSDYWMNWVRQSPEKGLEWVAQIRNKPYNYETYYSDSVKGRFTISRDDSKSSVYLQMNNLRVEDMGIYYCTGSYYGCEYWGQGTSVTVS chain 2 DVVMTQTPLSLPVSLGDQASISCRSSQSLVHSNGNTYLRWYLQKPGQSPKVLIYKVSNRFSGVPDRFSGSGSGTDFTLKISRVEAEDLGVYFCSQSTHVPWTFGGGTKLEIK [chain 1 M105C D106E] | ≥ 10 µM | 0.902 |
| chain 1 EVKLDETGGGLVQPGRPMKLSCVASGFTFSDYWMNWVRQSPEKGLEWVAQIRNKPYNYETYYSDSVKGRFTISRDDSKSSVYLQMNNLRVEDMGIYYCTGIYYKMDYWGQGTSVTVS chain 2 DVVMTQTPLSLPVSLGDQASISCRSSQSLVHSNGNTYLRWYLQKPGQSPKVLIYKVSNRFSGVPDRFSGSGSGTDFTLKISRVEAEDLGVYFCSQSTHVPWTFGGGTKLEIK [chain 1 S101I G104K] | ≥ 10 µM | 0.482 |
| chain 1 EVKLDETGGGLVQPGRPMKLSCVASGFTFSDYWMNWVRQSPEKGLEWVAQIRNKPYNYETYYSDSVKGRFTISRDDSKSSVYLQMNNLRVEDMGIYYCTGSYYGMIYWGQGTSVTVS chain 2 DVVMTQTPLSLPVSLGDQASISCRSSQSLVHSNGNTYLRWYLQKPGQSPKVLIYKVSNRFSGVPDRFSGSGSGTDFTLKISRVEAEDLGVYFCSQSTHVPWTFGGGTKLEIK [chain 1 D106I] | ≥ 10 µM | 0.577 |
| chain 1 EVKLDETGGGLVQPGRPMKLSCVASGFTFSDYWMNWVRQSPEKGLEWVAQIRNKPYNYETYYSDSVKGRFTISRDDSKSSVYLQMNNLRVEDMGIYYCTGSRYGADYWGQGTSVTVS chain 2 DVVMTQTPLSLPVSLGDQASISCRSSQSLVHSNGNTYLRWYLQKPGQSPKVLIYKVSNRFSGVPDRFSGSGSGTDFTLKISRVEAEDLGVYFCSQSTHVPWTFGGGTKLEIK [chain 1 Y102R M105A] | 8.56 µM | 1.1 |
| chain 1 EVKLDETGGGLVQPGRPMKLSCVASGFTFSDYWMNWVRQSPEKGLEWVAQIRNKPYNYETYYSDSVKGRFTISRDDSKSSVYLQMNNLRVEDMGIYYCTGSYYGMDGWVQGTSVTVS chain 2 DVVMTQTPLSLPVSLGDQASISCRSSQSLVHSNGNTYLRWYLQKPGQSPKVLIYKVSNRFSGVPDRFSGSGSGTDFTLKISRVEAEDLGVYFCSQSTHVPWTFGGGTKLEIK [chain 1 Y107G G109V] | ≥ 10 µM | 0.273 |
| chain 1 EVKLDETGGGLVQPGRPMKLSCVASGFTFSDYWMNWVRQSPEKGLEWVAQIRNKPYNYETYYSDSVKGRFTISRDDSKSSVYLQMNNLRVEDMGIYYCTGSYYGQDETGQGTSVTVS chain 2 DVVMTQTPLSLPVSLGDQASISCRSSQSLVHSNGNTYLRWYLQKPGQSPKVLIYKVSNRFSGVPDRFSGSGSGTDFTLKISRVEAEDLGVYFCSQSTHVPWTFGGGTKLEIK [chain 1 M105Q Y107E W108T] | 0.0162 µM | 0.548 |
| chain 1 EVKLDETGGGLVQPGRPMKLSCVASGFTFSDYWMNWVRQSPEKGLEWVAQIRNKPYNYETYYSDSVKGRFTISRDDSKSSVYLQMNNLRVEDMGIYYCTGSYYGMDYEGQGTSVTVS chain 2 DVVMTQTPLSLPVSLGDQASISCRSSQSLVHSNGNTYLRWYLQKPGQSPKVLIYKVSNRFSGVPDRFSGSGSGTDFTLKISRVEAEDLGVYFCSQSTHVPWTFGGGTKLEIK [chain 1 W108E] | ≥ 10 µM | 0.463 |
| chain 1 EVKLDETGGGLVQPGRPMKLSCVASGFQFSDYWMNWFRQSPEKGLEWVAQIRNKPYNYETYYSDSVKGRFTISRDDSKSSVYLQMNNLRVEDMGIYYCTGSYYGMDYWGQGTSVTVS chain 2 DVVMTQTPLSLPVSLGDQASISCRSSQSLVHSNGNTYLRWYLQKPGQSPKVLIYKVSNRFSGVPDRFSGSGSGTDFTLKISRVEAEDLGVYFCSQSTHVPWTFGGGTKLEIK [chain 1 T28Q V37F] | 0.021 µM | 1.1 |
| chain 1 EVKLDETGGGLVQPGRPMKLSCVASGFAFSDYWMNWVRQSPEKGLEWVAQIRNKPYNYETYYSDSVKGRFTISRDDSKSSVYLQMNNLRVEDMGIYYCTGSYYGMDYWGQGTSVTVS chain 2 DVVMTQTPLSLPVSLGDQASISCRSSQSLVHSNGNTYLRWYLQKPGQSPKVLIYKVSNRFSGVPDRFSGSGSGTDFTLKISRVEAEDLGVYFCSQSTHVPWTFGGGTKLEIK [chain 1 T28A] | 0.00158 µM | 1.01 |
| chain 1 EVKLDETGGGLVQPGRPMKLSCVASGFTFSDYWMNSVRQSPEKGLEWVAQIRNKPYNYETYYSDSVKGRFTISRDDSKSSVYLQMNNLRVEDMGIYYCTGSYYGMDYWGQGTSVTVS chain 2 DVVMTQTPLSLPVSLGDQASISCRSSQSLVHSNGNTYLRWYLQKPGQSPKVLIYKVSNRFSGVPDRFSGSGSGTDFTLKISRVEAEDLGVYFCSQSTHVPWTFGGGTKLEIK [chain 1 W36S] | ≥ 10 µM | 0.813 |
| chain 1 EVKLDETGGGLVQPGRPMKLSCVASGFTFSDYWMNQTRQSPEKGLEWVAQIRNKPYNYETYYSDSVKGRFTISRDDSKSSVYLQMNNLRVEDMGIYYCTGSYYGMDYWGQGTSVTVS chain 2 DVVMTQTPLSLPVSLGDQASISCRSSQSLVHSNGNTYLRWYLQKPGQSPKVLIYKVSNRFSGVPDRFSGSGSGTDFTLKISRVEAEDLGVYFCSQSTHVPWTFGGGTKLEIK [chain 1 W36Q V37T] | ≥ 10 µM | 0.396 |
